B1: Intersectin-1, residues 909 to 971; numbered along this chain, Q15811 (parent)
chain: QGEKVEGLQAQALYPWRAKKDNHLNFNKNDVITVLEQQDMWWFGEVQGQKGWFPKSYVKLISG

± gives the uncertainty stated by the source.

Variants of B1 are the subject of this data set. Put plainly: abundance fitness (aPCA) (normalised: wild type 0, dead -1); higher = more abundant; growth selection in yeast, the domain comes from the species named. As to conditions: Homo sapiens.
On to QGEKVEGLQAQALYPWRAKKDNHLNFNKTDVITVLEQQDMWWFGEVQGQKGWFPKSYVKLISG [N29T], for which the abundance fitness was -0.311 ± 0.17.

Turning to QGEKVEGLQAQALYPWRAKKDNHLNFNKCDVITVLEQQDMWWFGEVQGQKGWFPKSYVKLISG [N29C], the abundance fitness was -0.185 ± 0.12.

As to QGEKVEGLQAQALYPWRAKKDNHLNFNKFDVITVLEQQDMWWFGEVQGQKGWFPKSYVKLISG [N29F], the abundance fitness was -0.196 ± 0.36.

Consider QGEKVEGLQAQALYPWRAKKDNHLNFNKHDVITVLEQQDMWWFGEVQGQKGWFPKSYVKLISG [N29H], for which the abundance fitness came out at 0.104 ± 0.15.

In the case of QGEKVEGLQAQALYPWRAKKDNHLNFNKADVITVLEQQDMWWFGEVQGQKGWFPKSYVKLISG [N29A], the abundance fitness was -0.113 ± 0.11.

As to QGEKVEGLQAQALYPWRAKKDNHLNFNKQDVITVLEQQDMWWFGEVQGQKGWFPKSYVKLISG [N29Q], the abundance fitness is -0.041 ± 0.19.

Take QGEKVEGLQAQALYPWRAKKDNHLNFNKPDVITVLEQQDMWWFGEVQGQKGWFPKSYVKLISG [N29P]: the abundance fitness was -0.728 ± 0.48.

Regarding QGEKVEGLQAQALYPWRAKKDNHLNFNKNMVITVLEQQDMWWFGEVQGQKGWFPKSYVKLISG [D30M], the abundance fitness is -0.252 ± 0.051.

Turning to QGEKVEGLQAQALYPWRAKKDNHLNFNKNEVITVLEQQDMWWFGEVQGQKGWFPKSYVKLISG [D30E], the abundance fitness is -0.089 ± 0.04.

For the variant QGEKVEGLQAQALYPWRAKKDNHLNFNKNHVITVLEQQDMWWFGEVQGQKGWFPKSYVKLISG [D30H], the abundance fitness was -0.511 ± 0.11.

With QGEKVEGLQAQALYPWRAKKDNHLNFNKNGVITVLEQQDMWWFGEVQGQKGWFPKSYVKLISG [D30G], the abundance fitness was -0.75 ± 0.055.

On to QGEKVEGLQAQALYPWRAKKDNHLNFNKNFVITVLEQQDMWWFGEVQGQKGWFPKSYVKLISG [D30F], for which the abundance fitness is -0.742 ± 0.054.

For the variant QGEKVEGLQAQALYPWRAKKDNHLNFNKNIVITVLEQQDMWWFGEVQGQKGWFPKSYVKLISG [D30I], the abundance fitness was -0.677 ± 0.054.

Take QGEKVEGLQAQALYPWRAKKDNHLNFNKNKVITVLEQQDMWWFGEVQGQKGWFPKSYVKLISG [D30K]: the abundance fitness was -0.783 ± 0.086.

Regarding QGEKVEGLQAQALYPWRAKKDNHLNFNKNLVITVLEQQDMWWFGEVQGQKGWFPKSYVKLISG [D30L], the abundance fitness is -0.751 ± 0.042.

As to QGEKVEGLQAQALYPWRAKKDNHLNFNKNCVITVLEQQDMWWFGEVQGQKGWFPKSYVKLISG [D30C], the abundance fitness was -0.166 ± 0.07.

With QGEKVEGLQAQALYPWRAKKDNHLNFSKNDVITVLEQQDMWWFGEVQGQKGWFPKSYVKLISG [N27S], the abundance fitness is -0.408 ± 0.43.

QGEKVEGLQAQALYPWRAKKDNHLNFTKNDVITVLEQQDMWWFGEVQGQKGWFPKSYVKLISG [N27T]: the abundance fitness was -0.307 ± 0.43.

Regarding QGEKVEGLQAQALYPWRAKKDNHLNFRKNDVITVLEQQDMWWFGEVQGQKGWFPKSYVKLISG [N27R], the abundance fitness was -0.016 ± 0.15.

Turning to QGEKVEGLQAQALYPWRAKKDNHLNFVKNDVITVLEQQDMWWFGEVQGQKGWFPKSYVKLISG [N27V], the abundance fitness came to 0.157 ± 0.17.

As for QGEKVEGLQAQALYPWRAKKDNHLNFAKNDVITVLEQQDMWWFGEVQGQKGWFPKSYVKLISG [N27A], the abundance fitness is -0.114 ± 0.31.

Turning to QGEKVEGLQAQALYPWRAKKDNHLNFHKNDVITVLEQQDMWWFGEVQGQKGWFPKSYVKLISG [N27H], the abundance fitness was -0.708 ± 0.49.

As for QGEKVEGLQAQALYPWRAKKDNHLNFMKNDVITVLEQQDMWWFGEVQGQKGWFPKSYVKLISG [N27M], the abundance fitness is -0.037 ± 0.22.

In the case of QGEKVEGLQAQALYPWRAKKDNHLNFQKNDVITVLEQQDMWWFGEVQGQKGWFPKSYVKLISG [N27Q], the abundance fitness is -0.143 ± 0.24.

For the variant QGEKVEGLQAQALYPWRAKKDNHLNFKKNDVITVLEQQDMWWFGEVQGQKGWFPKSYVKLISG [N27K], the abundance fitness is -0.191 ± 0.17.

For QGEKVEGLQAQALYPWRAKKDNHLNFGKNDVITVLEQQDMWWFGEVQGQKGWFPKSYVKLISG [N27G], the abundance fitness was -0.185 ± 0.17.

Consider QGEKVEGLQAQALYPWRAKKDNHLNFEKNDVITVLEQQDMWWFGEVQGQKGWFPKSYVKLISG [N27E], for which the abundance fitness was 0.054 ± 0.45.

For the variant QGEKVEGLQAQALYPWRAKKDNHLNFNTNDVITVLEQQDMWWFGEVQGQKGWFPKSYVKLISG [K28T], the abundance fitness was determined as 0.208 ± 0.24.

QGEKVEGLQAQALYPWRAKKDNHLNFNGNDVITVLEQQDMWWFGEVQGQKGWFPKSYVKLISG [K28G]: the abundance fitness was -0.203 ± 0.093.

As to QGEKVEGLQAQALYPWRAKKDNHLNFNANDVITVLEQQDMWWFGEVQGQKGWFPKSYVKLISG [K28A], the abundance fitness was -0.264 ± 0.19.

Turning to QGEKVEGLQAQALYPWRAKKDNHLNFNQNDVITVLEQQDMWWFGEVQGQKGWFPKSYVKLISG [K28Q], the abundance fitness is -0.197 ± 0.41.

On to QGEKVEGLQAQALYPWRAKKDNHLNFNYNDVITVLEQQDMWWFGEVQGQKGWFPKSYVKLISG [K28Y], for which the abundance fitness is -0.254 ± 0.41.

Take QGEKVEGLQAQALYPWRAKKDNHLNFNRNDVITVLEQQDMWWFGEVQGQKGWFPKSYVKLISG [K28R]: the abundance fitness is -0.232 ± 0.19.

Turning to QGEKVEGLQAQALYPWRAKKDNHLNFNVNDVITVLEQQDMWWFGEVQGQKGWFPKSYVKLISG [K28V], the abundance fitness is -0.256 ± 0.14.

For the variant QGEKVEGLQAQALYPWRAKKDNHLNFNENDVITVLEQQDMWWFGEVQGQKGWFPKSYVKLISG [K28E], the abundance fitness was -0.173 ± 0.21.

Consider QGEKVEGLQAQALYPWRAKKDNHLNFNPNDVITVLEQQDMWWFGEVQGQKGWFPKSYVKLISG [K28P], for which the abundance fitness was -0.584 ± 0.32.

On to QGEKVEGLQAQALYPWRAKKDNHLNFNLNDVITVLEQQDMWWFGEVQGQKGWFPKSYVKLISG [K28L], for which the abundance fitness is -0.462 ± 0.23.

As for QGEKVEGLQAQALYPWRAKKDNHLNFNDNDVITVLEQQDMWWFGEVQGQKGWFPKSYVKLISG [K28D], the abundance fitness is -0.145 ± 0.46.

QGEKVEGLQAQALYPWRAKKDNHLNFNINDVITVLEQQDMWWFGEVQGQKGWFPKSYVKLISG [K28I]: the abundance fitness was -0.649 ± 0.42.

Consider QGEKVEGLQAQALYPWRAKKDNHLNFNMNDVITVLEQQDMWWFGEVQGQKGWFPKSYVKLISG [K28M], for which the abundance fitness is -0.208 ± 0.19.

Turning to QGEKVEGLQAQALYPWRAKKDNHLNFNHNDVITVLEQQDMWWFGEVQGQKGWFPKSYVKLISG [K28H], the abundance fitness was -0.253 ± 0.24.

Regarding QGEKVEGLQAQALYPWRAKKDNHLNFNCNDVITVLEQQDMWWFGEVQGQKGWFPKSYVKLISG [K28C], the abundance fitness is -0.172 ± 0.5.

Turning to QGEKVEGLQAQALYPWRAKKDNHLNFNNNDVITVLEQQDMWWFGEVQGQKGWFPKSYVKLISG [K28N], the abundance fitness is -0.563 ± 0.27.

Values taken from the Human Domainome abundance scans (Beltran et al. 2025).
